Experimental data: the nanobody polyreactivity screen of Harvey et al. (2022)

test: yeast display, Sf9 membrane polyspecificity reagent, FACS + sequencing; frameworks hold sequencing errors
In short: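 Sorting gates, low and high (top ~1%), were placed on anti-HA fluorescence to track expression and on streptavidin fluorescence to track reagent binding. A clone's polyreactivity label is taken from the gate it came out of. The reagent was 10% biotinylated, detergent-solubilized Sf9 membrane, applied for 1 hour at 4 °C to galactose-induced yeast display cells.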

Sequence	polyreactivity (PSR sort gate)
QVQLVESGGGLVQAGGSLRLSCAATGFTFSYYALGWYRQAPGKERELVAVISDRGGITYYADSVKGRFTISRDNAKNTVYLQMNSLKPEDTADYYCAAQNPRYNYRYYYWGHGTQVTVSS	low polyreactivity
QVQLVESGGGLVQAGGSLRLSCAATGLTIWHYVMGWYRQAPGKERELVATISSSGGSTFYADSVKGRFTISRDNAKNTVYLQMNSLKPEDTAVYYCNADQYSWRWRRKHDYWGQGTQVTVSS	high polyreactivity
QVQLVESGGGLVQAGGSLRLSCAATGRIFGRNAMGWYRQAPGKERELVAAINSGVSTYYADSVKGRFTISRDNAKNTVYLQMNSLKPQDTAVYYCANAPPRRYYDFDYWGQGTQVTVSS	low polyreactivity
QVQLVESGGGLVQAGGSLRLSCAATGRIVTSNAMGWYRQAPGKERELVAVISRRGGSTYYADSVKGRFTISRDNAKNTVYLQMNRLKPEETAVYYCARRPYSYTRYEYWGQGTQVTVSS	low polyreactivity
QVQLVESGGGLVQAGGSLRLSCAATGRTFQDNAMGWYRQAPGKERELVAAISWRGGSTNYADSVKGRFTISRDNAKNTVYLQMNSLKPEDTAVYYCNRDPRKYGKLDYWGQGTQVTVSS	low polyreactivity
QVQLVESGGGLVQAGGSLRLSCAATGRTFQFNAMGRYRQAPGKERELVAAITSNGGSTNYADSVKGRFTISRDNAKNTVYVQMNSLKPEDTAVYYSAAPRFRYYYWDMDYWGQGTQVTVSS	low polyreactivity
QVQLVESGGGLVQAGGSLRLSCAATGSIFDLNSMGWYRQAPGKEREVVAAISSGGGTYYADSVKGRFTISRDNANNTVFLQMNSLKPEDTAVYYCIRVTYRSRGRDYWGQGNQVTVSS	high polyreactivity
QVQLVESGGGLVQAGGSLRLSCAATGSIFLYYAMGWYRQAPGKERELVAGINRVGSTNYADSVKGRFTISRDNAKNTVYLELNSLKPEDTAVYYCAAKYRNRYDYWGQGTQATVSS	low polyreactivity
QVQLVESGGGLVQAGGSLRLSCAATGSIFQSYAMGRYRQAPGKERELVAGISSGGSTNYADSVKGRFTISRDNAMNTDYLQMNSLKPEDTAVYYCATGGFAGASFAYEYYYWGQGTQVTVSS	low polyreactivity
QVQLVESGGGLVQAGGSLRLSCAATGSIFRWNTMGWYRPAPGKERELVAVITWSGDSTYYADSVKGRFTISRDNAKNTVYLQMNSLKPEDTAVYYCAVDVVTSYYELTGSFNYWGQGTQVTVSS	low polyreactivity
QVQLVESGGGLVQAGGSLRLSCAATGSIFRYNTMGWYRQAPGKERELVATITRRGGSTYYADSVKGRITISRDNAKNTVYLQMNSLKPVDTAVYYCNDDNFGGPYNYWGQGTQVTVSS	low polyreactivity
QVQLVESGGGLVQAGGSLRLSCAATGSIFYNYAMGWYRQAPGKERELVAAINRSGGITFYADSVKGRFTISRDNAKNTVYLQMNSLKPEDTAVYYCAAEEVPYDRDMDYWGQGTQVTVSS	low polyreactivity
QVQLVESGGGLVQAGGSLRLSCAATGSILNYYAMGWYRQAPGKERELVATISSGGNTHYADSVKGRFTISRDNAKNTVYLQMNSLKPEDTAVYYSAAVASKHWGRDYWGQGTQVTVSS	low polyreactivity
QVQLVESGGGLVQAGGSLRLSCAATGSPFILYALGWYRQAPGKERALVAAITTSGGSTYYADSVKGRFTISRDNAKNTVYLQMNSLKPEDTAVYYCNADWGWRYSSDFDYWGQGTQVTVSS	low polyreactivity
QVQLVESGGGLVQAGGSLRLSCAATGSTVDFYAMGWNRQAPRKERELVAAISWSAGSTYYADSVKGRFTISRDNAKNTVYLQMNSLKPEDTAVYYCNADYWGQGTQVTVSS	low polyreactivity
QVQLVESGGGLVQAGGSLRLSCAATVSTFWNYAMGWYRQAPGKERELVAAITRGSSTNYADSVKGRFRISRDNAKNTVYLQMNSLKPEVTAVYYCAKRVGRWSAFYYWGQGTQVTVSS	high polyreactivity
QVQLVESGGGLVQAGGSLRLSCAAYGFFYNAMGWYRPAPGKERELVAAISWSGASTYYADSVKGRFTISRDNAKNTVYLQMNSLKPEDTAVFYCNADPRLRQTRDYWGQGTQVSVSS	high polyreactivity
QVQLVESGGGLVQAGGSLRLSCAAYGFIFGGNAMGWYRQAPGKERELVAAITARSGSTYYADSVKGRFTISRDNAKNTVYLQMNSLKPEDTAVYYCATPVYRSTYEYDYWGQGTQVTVSS	low polyreactivity
QVQLVESGGGLVQAGGSLRLSCAAYGFIFSYYAMGWFRQAPGKEREFVATITWRGGSTYYADSVKGRFTISRDNAKNTVYLQMNSLKPEDTAVYYCAARKRTPGYGYWGQGTQVTVSS	high polyreactivity
QVQLVESGGGLVQAGGSLRLSCAAYGFIFSYYTMGWYRQAPGKERELVAAISYSGGSTYYADSVKGRFTISRDNAKNNVYLQMNSLKPEDTAVYYCTAVAAATYDYWGQGTQVTVSS	high polyreactivity
QVQLVESGGGLVQAGGSLRLSCAAYGFIIARNAMGWYRQAPGKERELVAAISAAGGRTYYADSVKGRFTISRDNAKITVYFQMNSLKPEDTAVYYCAARRDGRCGSYNYWGQGTQVTVSS	high polyreactivity
QVQLVESGGGLVQAGGSLRLSCAAYGITFPSYVMGWYRQAPGKERELVAAISWRGGSTYYADSVKGRFTISRDNAKNTVYLQMNSLKPEDTAVYYCAAEYLVWYTFYPKYDYWGQGTQVTVSS	high polyreactivity

Sequence	polyreactivity (PSR sort gate)
QVQLVESGGGLVQAGGSLRLSCAAYGITFYLYAMGWYIQAPGKERELVAAITSSGGSTYYADSVKGRFTISRDNAKNTVYFQMNSLKPEDTAVYYCNALYFSQDRYDYWGQGTQVTVSS	high polyreactivity
QVQLVESGGGLVQAGGSLRLSCAAYGLTFYGYGMGWYRQAPGKERELVASITSGGNTYYADSVKGRFTISRDNAKNTVYLQMNSLKPEDTAVYYCAVTAIALYYSSGYYWGQGTQVTVSS	low polyreactivity
QVQLVESGGGLVQAGGSLRLSCAAYGNTFYPYTMGWYRQAPGKERELVADITYIGGDTYYADSVKGRFTISRDNAKNTVYLQMNSLKPEDTAVYYCNKDGGYFETYHTYTLDDYWGQGTQVTVSS	low polyreactivity
QVQLVESGGGLVQAGGSLRLSCAAYGRIFKYYVMGWYRPAPGKERELVATISSGSGTNYADSVKGRFTISRDNAKNTVYLQMNSLKPEDTAVYYCAARWTPRVRGYNYWGQGTLVTVSS	high polyreactivity
QVQLVESGGGLVQAGGSLRLSCAAYGRIFSTYAMGWYRQAPGKERELVAAINSIGGRTYYADSVKGRFTISRDNAKNTVYLQMNSLKPEDTAVYYCAAGYRTRRGLGYYYWGQGTQVTVSS	high polyreactivity
QVQLVESGGGLVQAGGSLRLSCAAYGRISYYYAMGWYRQAPGKERELVAAITYSTGSTYYADSVKGRFTISRDNAKNTVYLQMNSLKPEDSAVYYCAARYWRWLFPFDYWGQGTKVTVSS	high polyreactivity
QVQLVESGGGLVQAGGSLRLSCAAYGRTFASYALGWYRQAPGKEREFVAVISVNGGNTYYADSVKGRFTISRDNAKNTVYLQMNSLKPEDTAVYYCARFDGWYQGYYPLYEFDYWGQGTQVTVSS	high polyreactivity
QVQLVESGGGLVQAGGSLRLSCAAYGRTFDTYAMGWYLQAPGKERELVAAISFSGASTYYADSVKGRFTISRDNAKNTVYLQLNSLKPEDTAVYYCNARYGYRVPLTPIGARFNYWGQGTQETVSS	high polyreactivity
QVQLVESGGGLVQAGGSLRLSCAAYGRTFFWNAMGLYRKAPGTETELVAAITWSGGSTYYADSVKGRFTISRDNAKITVYLQMNSLKPEDTAVYYCASVVSDYVWRYEYWGQGTQVTVSS	low polyreactivity
QVQLVESGGGLVQAGGSLRLSCAAYGRTFNDYAMGWYRQAPGKERELVAAIDSDGDTNYADSVKGRFTISRDNAKNTVYLQMNSLKPEDTAVFYCNAVRLVVQEWYYYFTFDYWGQGTQVTVSS	low polyreactivity
QVQLVESGGGLVQAGGSLRLSCAAYGRTIRYYSMGRYRQAPAKERELVATISRRSGNTYYADSVKGRFTLSRDNAKNTVYLKMNSLKPEDTAVYYCAVRYFGLYNYDYWGQGTQVTVSS	high polyreactivity
QVQLVESGGGLVQAGGSLRLSCAAYGRTITYYAMGGYRQSPGKERELVAAIPWSGGSTYYADSVKGRFTISRDNAKNTVYLQMNSLKPEDTAVYYCSADSYIYSVNYWGQGTQLTVSS	low polyreactivity
QVQLVESGGGLVQAGGSLRLSCAAYGSIFCIFAMGWYRQAPGKEWELVAAISSDGSTKYADSVKGRFTISRDNAKNTVYFQMNSLKPEDTAVYYCAKLKYVRIGGPKQSMALDYWGQGTQVTVSS	low polyreactivity
QVQLVESGGGLVQAGGSLRLSCAAYGSIFPYYAMGWYRQAPGKERELVAGITSGTRTNYADSVKGRFTISRDNAKNTVYLQMNSLKPEDTAVYYCAAYYRAYRRDYYWGQGTQVTVSS	high polyreactivity
QVQLVESGGGLVQAGGSLRLSCAAYGSIFSFYVMGWNRQAPGKERELVARINWSSTSTYYADSVKGRFTISRDNAKNTVYLQMNSLKPEDTAVYYCAAGRRVYPGYYYWGQGTQVTVSS	high polyreactivity
QVQLVESGGGLVQAGGSLRLSCAAYGSTFFRYAMGWYRQAPGKERELVAAISASTGSTYYADSVKGRFTISRDNAKNTVYLQMNSLKPEDTAVYYCNAELGYGTNDNWYDYWGKGTQVTVSS	low polyreactivity
QVQLVESGGGLVQAGGSLRLSCAAYGSTFRSYAMGWYRQAPGKERELVAAISYSGDSTYYADSVKGRFTISRDNAKNTVYLQMNSLKPEDTAVYYCAALRDWDFQCEPWKRYGYWGQGTLVTVSS	low polyreactivity
QVQLVESGGGLVQAGGSLRLSCAAYGSTFRTNAMGWYRQAPGKERELVAAISQRGGSTYYADSVKGRFTISRDNAKNTVYLQMNSLKPEDTGVYYCAARRYAYQSGGTLLTDDYWGQGTQVTVSS	high polyreactivity
QVQLVESGGGLVQAGGSLRLSCAAYGSTFVWNTMGWYLQAPGKERELVAAINWSGTRTYYADSVKGRFTISRDNAKNTVYLQMNSLKPEDTAVYYCAAESYYPAGIRGYWGQGTQVTVSS	high polyreactivity
QVQLVESGGGLVQAGGSLRLSCAAYGYIFRLYAMGWYRQAPGKERELVAGISTGGRTNYADSVKGRFTISRDNAKNTVYLQMNSLKPEDTAVYYCAAAWHTAYWVVSDSLGGGYWGQGTQVTVSS	low polyreactivity
QVQLVESGGGLVQAGGSLRLSCAAYVRIFGYYAMGWYRQAPGKERELVAGISARGGSTYYADSVKGRLTISRDNAKNTVYLQMNSLKPEDTAVYYCAAYYLWPGYLFRPYDYWGHGTQVTVSS	low polyreactivity
